Test results published in patent US20250262210A1 (TRUSTEES OF COLUMBIA UNIVERSITY IN THE CITY OF NEW YORK, published 2025).

Columns and labels:
UBE4B = biological target: T1, UBE4B (human, UniProt O95155 1-1302, limits assumed); experiment: IP/MS, LZTR1 R810W-FLAG, U87
T1 sequence (looked up): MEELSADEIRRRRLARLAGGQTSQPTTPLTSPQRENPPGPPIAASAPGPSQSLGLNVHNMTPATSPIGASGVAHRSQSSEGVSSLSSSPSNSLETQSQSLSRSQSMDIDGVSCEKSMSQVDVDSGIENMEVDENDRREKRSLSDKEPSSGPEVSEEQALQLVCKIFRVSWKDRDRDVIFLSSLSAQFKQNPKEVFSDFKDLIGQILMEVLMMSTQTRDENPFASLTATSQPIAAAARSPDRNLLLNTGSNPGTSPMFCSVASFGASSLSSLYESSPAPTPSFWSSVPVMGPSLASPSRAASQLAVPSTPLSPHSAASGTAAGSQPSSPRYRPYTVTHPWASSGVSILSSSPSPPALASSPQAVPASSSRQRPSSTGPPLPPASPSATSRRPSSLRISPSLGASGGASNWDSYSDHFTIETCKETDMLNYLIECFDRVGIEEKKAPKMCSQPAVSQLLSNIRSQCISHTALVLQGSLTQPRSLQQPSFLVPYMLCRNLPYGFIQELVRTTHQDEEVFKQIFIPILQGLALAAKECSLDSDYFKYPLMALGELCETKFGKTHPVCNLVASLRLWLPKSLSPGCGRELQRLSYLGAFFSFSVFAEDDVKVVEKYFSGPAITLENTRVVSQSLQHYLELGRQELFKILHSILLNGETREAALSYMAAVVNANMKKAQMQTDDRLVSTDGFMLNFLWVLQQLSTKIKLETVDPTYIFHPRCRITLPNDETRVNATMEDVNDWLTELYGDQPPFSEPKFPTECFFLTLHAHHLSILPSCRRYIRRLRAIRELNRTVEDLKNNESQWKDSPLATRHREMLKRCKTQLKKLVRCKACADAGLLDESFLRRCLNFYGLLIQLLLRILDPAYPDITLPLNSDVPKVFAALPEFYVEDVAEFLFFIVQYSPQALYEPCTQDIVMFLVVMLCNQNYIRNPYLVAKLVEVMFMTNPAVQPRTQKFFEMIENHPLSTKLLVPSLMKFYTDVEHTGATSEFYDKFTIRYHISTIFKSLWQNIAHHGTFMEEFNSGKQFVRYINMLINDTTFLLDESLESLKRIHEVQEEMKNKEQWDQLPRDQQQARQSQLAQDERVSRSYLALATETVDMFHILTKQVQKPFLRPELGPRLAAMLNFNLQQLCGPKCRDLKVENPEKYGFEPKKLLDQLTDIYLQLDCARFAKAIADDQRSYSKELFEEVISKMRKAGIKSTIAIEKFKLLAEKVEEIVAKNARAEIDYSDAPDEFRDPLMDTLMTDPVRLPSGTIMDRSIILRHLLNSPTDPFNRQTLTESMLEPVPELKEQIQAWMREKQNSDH
Summary of the method: (§1)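 Read-out: spectral counts from LC-MS/MS (Orbitrap Fusion) after MaxQuant identification. Variable modifications were Met oxidation, protein N-terminal acetylation and N/Q deamidation.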

ARHGEF40 = ARHGEF40 (human, UniProt Q8TER5 1-1519, limits assumed); experiment: IP/MS, LZTR1 R810W-FLAG, U87
ARHGEF40, sequence (Q8TER5 whole entry): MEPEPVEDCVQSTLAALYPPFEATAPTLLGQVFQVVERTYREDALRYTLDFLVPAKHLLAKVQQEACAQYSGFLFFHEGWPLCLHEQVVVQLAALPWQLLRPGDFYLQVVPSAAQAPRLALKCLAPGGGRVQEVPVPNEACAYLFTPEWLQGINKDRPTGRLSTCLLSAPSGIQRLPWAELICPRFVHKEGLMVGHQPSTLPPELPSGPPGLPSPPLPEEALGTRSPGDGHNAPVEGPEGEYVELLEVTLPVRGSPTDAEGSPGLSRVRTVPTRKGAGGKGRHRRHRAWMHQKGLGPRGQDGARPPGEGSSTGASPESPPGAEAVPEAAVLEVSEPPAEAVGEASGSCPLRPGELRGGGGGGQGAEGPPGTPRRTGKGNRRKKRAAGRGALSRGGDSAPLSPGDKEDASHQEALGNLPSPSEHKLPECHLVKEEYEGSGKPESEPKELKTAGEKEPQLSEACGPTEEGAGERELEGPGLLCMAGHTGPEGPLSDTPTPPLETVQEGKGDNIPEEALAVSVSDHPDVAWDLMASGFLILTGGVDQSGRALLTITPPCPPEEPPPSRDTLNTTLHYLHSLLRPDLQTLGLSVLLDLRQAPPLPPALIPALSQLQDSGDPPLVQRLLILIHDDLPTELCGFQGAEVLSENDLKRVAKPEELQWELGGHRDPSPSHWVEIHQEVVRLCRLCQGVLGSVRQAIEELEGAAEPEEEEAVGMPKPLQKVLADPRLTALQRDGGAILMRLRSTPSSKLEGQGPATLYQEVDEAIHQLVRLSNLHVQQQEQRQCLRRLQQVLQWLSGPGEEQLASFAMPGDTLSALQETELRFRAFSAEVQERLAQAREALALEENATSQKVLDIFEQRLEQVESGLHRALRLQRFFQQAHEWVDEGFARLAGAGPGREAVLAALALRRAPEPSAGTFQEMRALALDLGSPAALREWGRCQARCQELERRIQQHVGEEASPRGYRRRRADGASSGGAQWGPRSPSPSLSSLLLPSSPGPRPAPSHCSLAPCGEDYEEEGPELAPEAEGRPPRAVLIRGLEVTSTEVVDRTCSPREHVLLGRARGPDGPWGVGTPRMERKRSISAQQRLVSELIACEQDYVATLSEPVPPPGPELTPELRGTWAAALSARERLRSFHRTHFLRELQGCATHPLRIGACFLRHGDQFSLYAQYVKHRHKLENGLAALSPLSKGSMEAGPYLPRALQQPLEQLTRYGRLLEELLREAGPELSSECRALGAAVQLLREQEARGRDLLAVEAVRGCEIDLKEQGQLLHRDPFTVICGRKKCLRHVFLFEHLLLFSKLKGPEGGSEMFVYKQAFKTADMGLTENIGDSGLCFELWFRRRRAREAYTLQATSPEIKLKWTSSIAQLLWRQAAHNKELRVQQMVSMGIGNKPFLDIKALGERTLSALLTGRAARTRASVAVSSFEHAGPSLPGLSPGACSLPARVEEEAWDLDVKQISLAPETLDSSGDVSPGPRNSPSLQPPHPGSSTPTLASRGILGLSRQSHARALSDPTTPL
Summary of the method: as §1

B1: LZTR1 R810W-FLAG (other, human, UniProt Q8N653 1-840, looked up)
chain: MAGPGSTGGQIGAAALAGGARSKVAPSVDFDHSCSDSVEYLTLNFGPFETVHRWRRLPPCDEFVGARRSKHTVVAYKDAIYVFGGDNGKTMLNDLLRFDVKDCSWCRAFTTGTPPAPRYHHSAVVYGSSMFVFGGYTGDIYSNSNLKNKNDLFEYKFATGQWTEWKIEGRLPVARSAHGATVYSDKLWIFAGYDGNARLNDMWTIGLQDRELTCWEEVAQSGEIPPSCCNFPVAVCRDKMFVFSGQSGAKITNNLFQFEFKDKTWTRIPTEHLLRGSPPPPQRRYGHTMVAFDRHLYVFGGAADNTLPNELHCYDVDFQTWEVVQPSSDSEVGGAEVPERACASEEVPTLTYEERVGFKKSRDVFGLDFGTTSAKQPTQPASELPSGRLFHAAAVISDAMYIFGGTVDNNIRSGEMYRFQFSCYPKCTLHEDYGRLWESRQFCDVEFVLGEKEECVQGHVAIVTARSRWLRRKITQARERLAQKLEQEAAPVPREAPGVAAGGARPPLLHVAIREAEARPFEVLMQFLYTDKIKYPRKGHVEDVLLIMDVYKLALSFQLCRLEQLCRQYIEASVDLQNVLVVCESAARLQLSQLKEHCLNFVVKESHFNQVIMMKEFERLSSPLIVEIVRRKQQPPPRTPLDQPVDIGTSLIQDMKAYLEGAGAEFCDITLLLDGHPRPAHKAILAARSSYFEAMFRSFMPEDGQVNISIGEMVPSRQAFESMLRYIYYGEVNMPPEDSLYLFAAPYYYGFYNNRLQAYCKQNLEMNVTVQNVLQILEAADKTQALDMKRHCLHIIVHQFTKVSKLPTLWSLSQQLLLDIIDSLASHISDKQCAELGADI
notes: Stably expressed in U87 cells by lentivirus; also called LZTR1-FLAG-R810W; LZTR1 RW; not shown: FLAG tag
B1: binds (UBE4B); binds (ARHGEF40).
